Literature values, collected in patent US10507248B2, “Hydrophobic core carrier compositions for delivery of therapeutic agents, methods of making and using the same” (PharmaIn Corporation, priority 2005, dated 2019).

Settings: in vivo

B1: native EGF: native Epidermal Growth Factor with short biological half-life (protein, UniProt P01133 23-1207, looked up)
Pro-epidermal growth factor: PQHWSCPEGTLAGNGNSTCVGPAPFLIFSHGNSIFRIDTEGTNYEQLVVDAGVSVIMDFHYNEKRIYWVDLERQLLQRVFLNGSRQERVCNIEKNVSGMAINWINEEVIWSNQQEGIITVTDMKGNNSHILLSALKYPANVAVDPVERFIFWSSEVAGSLYRADLDGVGVKALLETSEKITAVSLDVLDKRLFWIQYNREGSNSLICSCDYDGGSVHISKHPTQHNLFAMSLFGDRIFYSTWKMKTIWIANKHTGKDMVRINLHSSFVPLGELKVVHPLAQPKAEDDTWEPEQKLCKLRKGNCSSTVCGQDLQSHLCMCAEGYALSRDRKYCEDVNECAFWNHGCTLGCKNTPGSYYCTCPVGFVLLPDGKRCHQLVSCPRNVSECSHDCVLTSEGPLCFCPEGSVLERDGKTCSGCSSPDNGGCSQLCVPLSPVSWECDCFPGYDLQLDEKSCAASGPQPFLLFANSQDIRHMHFDGTDYGTLLSQQMGMVYALDHDPVENKIYFAHTALKWIERANMDGSQRERLIEEGVDVPEGLAVDWIGRRFYWTDRGKSLIGRSDLNGKRSKIITKENISQPRGIAVHPMAKRLFWTDTGINPRIESSSLQGLGRLVIASSDLIWPSGITIDFLTDKLYWCDAKQSVIEMANLDGSKRRRLTQNDVGHPFAVAVFEDYVWFSDWAMPSVMRVNKRTGKDRVRLQGSMLKPSSLVVVHPLAKPGADPCLYQNGGCEHICKKRLGTAWCSCREGFMKASDGKTCLALDGHQLLAGGEVDLKNQVTPLDILSKTRVSEDNITESQHMLVAEIMVSDQDDCAPVGCSMYARCISEGEDATCQCLKGFAGDGKLCSDIDECEMGVPVCPPASSKCINTEGGYVCRCSEGYQGDGIHCLDIDECQLGEHSCGENASCTNTEGGYTCMCAGRLSEPGLICPDSTPPPHLREDDHHYSVRNSDSECPLSHDGYCLHDGVCMYIEALDKYACNCVVGYIGERCQYRDLKWWELRHAGHGQQQKVIVVAVCVVVLVMLLLLSLWGAHYYRTQKLLSKNPKNPYEESSRDVRSRRPADTEDGMSSCPQPWFVVIKEHQDLKNGGQPVAGEDGQAADGSMQPTSWRQEPQLCGMGTEQGCWIPVSSDKGSCPQVMERSFHMPSYGTQTLEGGVEKPHSLLSANPLWQQRALDPPHQMELTQ
modifications: Pro-epidermal growth factor
For B1, the biological half-life is listed as “few minutes”.
